Laboratory results: patent publication US20020035246, “SMAD-interacting polypeptides and their use” (published 2002)

Biological target: T1, SIP1CZF (C-terminal zinc finger cluster of SIP1) (Mus musculus, UniProt Q9R0G7 SEQ:728-805)
T1 sequence: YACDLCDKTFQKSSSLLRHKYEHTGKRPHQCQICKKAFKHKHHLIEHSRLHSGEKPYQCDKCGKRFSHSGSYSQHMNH
Assay: EMSA; competed by excess unlabeled self
Settings: tags: GST fusion, E. coli; label: 32P

B1: Brachyury binding site (dsDNA)
DNA 1: TGACACCTAGGTGTGAATT
DNA 2: AATTCACACCTAGGTGTCA
  binding result: binds
